Source: article PMC12507909

Target: basigin (BSG), recombinant extracellular domain Met1-His205 (human)
Experiment: ELISA; Maxisorp plates coated with 5 μg/mL of each receptor candidate; serial dilutions of PvRBP1a_(158-650)LTID and LTID (48,000 pM to 187.5 pM and 4,000 pM to 1.28 pM) in blocking solution, 16 hours at 4°C; detected with a TurboID-specific antibody; one-site binding saturation model; triplicates

Substance: PvRBP1a_(158-650)LTID fusion protein (from UniProt Q5DSE1 158-650) (domain or fragment)
- Kd: 2.16 nM
